This note sets out measurements from article PMC3690555 (Biochemistry, 2009).

The target in series [1] is D3A-NiSOD (Streptomyces coelicolor). Description: crystal structure.
Series [2] has the same target. The experiment in a line: SEC + native MS.
Series [3] has as its target Y9F-NiSOD (Streptomyces coelicolor). Description: crystal structure.
The target is the same in series [4]. Description: SEC + native MS.
In series [5] the target is Y9FY62F-NiSOD (Streptomyces coelicolor). The experiment in a line: SEC + native MS.
The target of series [6] is Y62F-NiSOD (Streptomyces coelicolor). Description: SEC + native MS.
Series [7] concerns the molecule itself. Description: SEC + native MS.

The stoichiometry N is a count of units in the complex or per binding partner. Consider D3A-NiSOD (enzyme), for which the stoichiometry N in series [1] and in series [2] was 6 each time.

Consider Y9F-NiSOD (enzyme), for which the stoichiometry N in series [3] and in series [4] was 6 each time.

In the case of Y9FY62F-NiSOD (enzyme), the stoichiometry N in series [5] was 6.

For Y62F-NiSOD (enzyme), the stoichiometry N in series [6] stood at 6.

B1: WT-NiSOD, recombinant nickel-dependent superoxide dismutase from Streptomyces coelicolor (enzyme, UniProt P80735 15-131, looked up)
chain: HCDLPCGVYDPAQARIEAESVKAVQEKMAGNDDPHFQTRATVIKEQRAELAKHHVSVLWSDYFKPPHFEKYPELHQLVNDTLKALSAAKGSKDPATGQKALDYIAQIDKIFWETKKA
For the molecule B1, the “stoichiometry N” value in series [7] was 6.
